What was measured:
[1] = molecular target: T1, Cas1 R84G (Escherichia coli, UniProt Q46896 1-305, R84G); assay: EMSA; 5 mM EDTA; EMSA: 7 mM Tris-HCl pH 8.5, 9% glycerol, 50 mM NaCl, 100 ug/ml BSA, 5 mM EDTA, 10 min ambient temperature, 6 nM DNA, 5% acrylamide TBE gel at room temperature; settings: protein: recombinant; tags: N-terminal His6; chain copies: 2; label: 5'-32P; fork; 25 nt leading arm duplex, 26 nt ssDNA flap
T1 sequence: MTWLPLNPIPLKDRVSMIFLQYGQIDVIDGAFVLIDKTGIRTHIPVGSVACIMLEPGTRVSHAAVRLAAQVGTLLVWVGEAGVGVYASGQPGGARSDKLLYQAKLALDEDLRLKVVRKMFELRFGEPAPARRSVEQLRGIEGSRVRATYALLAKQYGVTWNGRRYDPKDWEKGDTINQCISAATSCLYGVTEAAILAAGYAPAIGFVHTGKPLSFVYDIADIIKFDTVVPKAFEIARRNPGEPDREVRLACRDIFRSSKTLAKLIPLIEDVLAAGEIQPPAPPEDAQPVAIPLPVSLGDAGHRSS

[2] = molecular target: T2, Cas1 R138G (Escherichia coli, UniProt Q46896 1-305, R138G); assay: as above; settings: protein: recombinant; tags: N-terminal His6; chain copies: 2; label: 5'-32P; fork; 25 nt leading arm duplex, 26 nt ssDNA flap
T2 sequence: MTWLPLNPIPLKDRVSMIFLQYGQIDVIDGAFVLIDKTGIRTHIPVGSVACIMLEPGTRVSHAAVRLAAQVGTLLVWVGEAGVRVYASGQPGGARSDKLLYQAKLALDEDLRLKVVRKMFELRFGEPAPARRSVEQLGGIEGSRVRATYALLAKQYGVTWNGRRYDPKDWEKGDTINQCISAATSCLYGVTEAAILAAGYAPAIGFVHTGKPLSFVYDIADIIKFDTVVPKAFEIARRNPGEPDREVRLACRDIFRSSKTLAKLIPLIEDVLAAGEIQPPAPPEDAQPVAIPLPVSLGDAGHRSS

[3] = molecular target: T3, Cas1 R123G (Escherichia coli, UniProt Q46896 1-305, R123G); assay: as above; settings: protein: recombinant; tags: N-terminal His6; chain copies: 2; label: 5'-32P; fork; 25 nt leading arm duplex, 26 nt ssDNA flap
T3 sequence: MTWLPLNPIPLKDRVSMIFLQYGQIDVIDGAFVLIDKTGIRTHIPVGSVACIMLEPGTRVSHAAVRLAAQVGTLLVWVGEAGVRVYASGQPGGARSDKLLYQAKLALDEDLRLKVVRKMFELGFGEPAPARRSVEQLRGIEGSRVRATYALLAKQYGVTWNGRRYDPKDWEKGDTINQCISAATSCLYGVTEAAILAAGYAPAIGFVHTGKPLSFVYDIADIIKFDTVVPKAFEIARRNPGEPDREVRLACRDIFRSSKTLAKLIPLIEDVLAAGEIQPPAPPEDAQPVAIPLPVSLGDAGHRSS

[4] = molecular target: T4, Cas1;Cas2 (Escherichia coli;Escherichia coli, UniProt Q46896;P45956 1-305;1-94, |); assay: EMSA; 5 mM EDTA; super-shifted complex Y; EMSA: 7 mM Tris-HCl pH 8.5, 9% glycerol, 50 mM NaCl, 100 ug/ml BSA, 5 mM EDTA, 10 min ambient temperature, 6 nM DNA, 5% acrylamide TBE gel at room temperature; settings: protein: recombinant;recombinant; tags: N-terminal His6;N-terminal His6; chain copies: 4;2; label: 5'-32P; fork; 25 nt leading arm duplex, 26 nt ssDNA flap
T4 sequence 1: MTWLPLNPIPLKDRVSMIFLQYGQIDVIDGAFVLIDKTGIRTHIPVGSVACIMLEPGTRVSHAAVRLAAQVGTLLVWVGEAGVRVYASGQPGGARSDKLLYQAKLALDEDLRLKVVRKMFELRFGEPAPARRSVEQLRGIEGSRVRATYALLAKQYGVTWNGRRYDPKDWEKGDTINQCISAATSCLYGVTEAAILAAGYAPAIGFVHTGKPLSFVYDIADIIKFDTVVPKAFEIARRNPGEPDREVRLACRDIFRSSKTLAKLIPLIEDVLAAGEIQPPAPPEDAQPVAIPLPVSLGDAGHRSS
T4 sequence 2: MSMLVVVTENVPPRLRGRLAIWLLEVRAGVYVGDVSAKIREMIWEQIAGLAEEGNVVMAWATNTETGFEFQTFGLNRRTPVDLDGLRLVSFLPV

B1: fork-1 (mixed)
DNA 1: CAACGTCATAGACGATTACATTGCTACATGGAGCTGTCTAGAGGATCCGA
DNA 2: TCGGATCCTCTAGACAGCTCCATGATCACTGGCACTGGTAGAATTCGGC
DNA 3: GCCGAATTCTACCAGTGCCAGTGAT
[1]
  binding result: no binding
[2]
  binding result: no binding
[3]
  binding result: no binding
[4]
  binding result: binds

Source: paper PMC4678826, “Different genome stability proteins underpin primed and naïve adaptation in E. coli CRISPR-Cas immunity”
